Tested on: Saccharomyces cerevisiae
Test: transcriptional activation domain activity (GFP:mCherry ratio, weighted mean of sorted bins, harmonized to initial dataset scale) (arbitrary fluorescence ratio units); higher = stronger transcriptional activation
Conditions: beta-estradiol 1 µM; induction time 4 h
Procedure: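 53-aa protein tiles (fungal proteins plus yeast TF control tiles) fused C-terminally to a DBD-estrogen-binding domain-mCherry synthetic TF, integrated in S. cerevisiae (URA3 locus) with a GFP reporter. Cells were induced with 1 uM beta-estradiol for 4 h at 30 C, FACS-sorted into 8 bins by GFP:mCherry ratio and barcodes sequenced. Activity is the read-weighted mean bin fluorescence (GFP:mCherry), averaged over barcodes (median 12); tiles under 50 reads were discarded. New active-learning values were harmonized by linear fit onto the scale of the initial (Hummel et al.) dataset. The assay saturates at low and high signal.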

Sequence | transcriptional activation domain activity
RSTMKIVEEEDQRRRAIRKTCCALCGREEGVSLRCKRCKTVLYCSPSVRGCQL | 33200
MSIAWLCYSSALCQGLRNTIFPSLNIFLMDPLSEWTARQWLFYLVWLLTIVWK | 52800
GWFGAVFGVLYFFLFIFGITSVYIGFSFLLYSICLSHGTVWHPLCQFHFFYFI | 28100
LAHFVIHRGLIISIMQAVFSAIFYFAPIALYQGMLLVGYTTVYTMWPLFSLVL | 58500
VYPEKVIFAPFEIFVVLVSFFNLVLFLFCFPFTLYPPKRWLRIVVLLFLFFFC | 50400
LALQRMDWHSVFRKTFYESRSWLHLLTNFSRIWIMHISAFWYYMAANIDFFYR | 56400
AAPVKKEEPKKEETPKAAEETATAPVAETPAVAAAAATEAPKEEAKEEPKRRS | 35400
YSRLILSVIIQFYQRCSDRFQDVVSRNSLDLTDTRLLVSARWAQRENLVVCLS | 49600
FTKTIMHITLILNILMNMCVAPTLLPLQVYYWLTKYYCACHGCLPHFTVIALF | 60900
WATVYLWTCHYQLLVYICTLIIIETRGFLKLGYVFLITLLLLSCIPHILLHVI | 30300
ESGSGSGSESGDSKDTAKAQGRGRKRGRESENHSSEDEEESVERKPRKARKFR | 36100
IPIKYNTAIKRHQHSTELPSSVKCGFCNDNTTCVCKELETDHRKSDDGVATEQ | 39200
DDKPAEKKEAAAAPKKEEAKKEEAKPAEKKEEPKKEAATAVPKATEKKPATAA | 25900
SSSEEEVEVEVDKKTGVKRKRVKKQKVKKDVHNLVWSVVSQKKVFTDCWLGVL | 91900
EEAFVAINLRNLLTFGLTYFINDWILDDGVLFVFCILGMLFLVVCLMTIPLWI | 29000
RGGNPSGNAGGAGRRAKKSKDRDRNKKKSKKNSGQSGDRSTSSSKNKNKKGGG | < 6570
IRPSTPAATRSTSPPRPRPPRASRSPRPRRTRGRRSSKLRRKATSPPPATAPS | 38200

Sequence | transcriptional activation domain activity
CDSVYLHQDQCAHVLEYCMDATPGLINYIQLYFCSPIKPFIFLIMCCWLLFLF | 51500
TKCSLDKMLPMLLPLKDALVHMDLMEYYFQTGYLYYLAFSCFILLLYPPFMVL | 53800
PEEEEQAEAGVDSSIVEIAPKRGRGRPRKSLPTEGTTAEAPAKRGRGRPKKVS | 27600
FSLSLHICFIFSRLIMLHCIFSLLKMIPFCAKFFCFFLFLFLFSPFLLYILFV | 54000
TEEVVEPAAEKPAKKSRKRKSDVAEAVAEEKPETPVKPKKAKKEVAKAEEVVA | 20400
RTSDRYLETLDALFVDKFVYAHAWTTFMSTCLKTWRRDCCSSAMLLLLHILCF | 54900
IARSRNLPLDVVMYLGSDEENDMMVDTLLLLHDYISKVRSLILRVNFMTLSCA | 66700
MKVDLNKHPSCRRIIWVGYTKICTFLIPDKLLVYLSLTTQARRIAWREKLTLF | 59600
FPFSLLVLLIFYVFSFVFVICYMGILGAQYVYFYFSYIFDCHPLPLLRRLSFF | 36900
IFHLPLECPFPLTNRRNACALIENFLDAVKYHRHLFPYWRRRAIKYFIWREWF | 32300
LWQYMEFRIMIYLFLALCFIPISIFVIFCSCLSSILFMISAGIWIFFGTIAFL | 51200
YGLIYSILLHLCAVFISSLRRLTVLRELLRMLFLFSCFWFAVSISYMSVLYTI | 49300
MSWPFPFFFLLFRLFLSLFRGGCFWVQIFVFIPEYLVYSILFSFFFTVIYLFV | 40400
MGVCLCVALFAPFFSLFFFLSPAPYCSGKIWHLSILFLLYHCRRVLPLFILAC | 49600
VTQLIRDARRLLTCVRTGFVFYLGTCMALTCLQMISFCTVLPPILTGYQILWV | 63000
VNGDLFEADGCTIQWLLDNSHGLIFAVAYPRILTLTYVPALLQTIKTLFLSLF | 44000
QAFTIVDPTPPIRFYDLHRLHLTLVHSPMRFFHVAPIIPFLLSYLIELYSLFY | 43100
